From PMC6462529

Legend:
gl-PG16 = experiment: D7324-capture ELISA; settings: PGT145-purified trimers; SOSIP.664 AUC-value printed 0.01
PG16 = experiment: D7324-capture ELISA; settings: PGT145-purified trimers; SOSIP.664 AUC-value printed 0.55
CH103 = experiment: D7324-capture ELISA; settings: PGT145-purified trimers; SOSIP.664 AUC-value printed 1.34
PG9 = experiment: D7324-capture ELISA; settings: PGT145-purified trimers; SOSIP.664 AUC-value printed 1.70
F105 = experiment: D7324-capture ELISA; settings: PGT145-purified trimers; SOSIP.664 AUC-value printed 0.12
VRC26.09 = experiment: D7324-capture ELISA; settings: PGT145-purified trimers; SOSIP.664 AUC-value printed 0.49
gl-PG9 = experiment: D7324-capture ELISA; settings: PGT145-purified trimers; SOSIP.664 AUC-value printed 0.14
PGT121 = experiment: D7324-capture ELISA; settings: PGT145-purified trimers; SOSIP.664 AUC-value printed 1.60
PGT151 = experiment: D7324-capture ELISA; settings: PGT145-purified trimers; SOSIP.664 AUC-value printed 0.75
gl-CH01 = experiment: D7324-capture ELISA; settings: PGT145-purified trimers; SOSIP.664 AUC-value printed 0.14
PGT145 = experiment: D7324-capture ELISA; settings: PGT145-purified trimers; SOSIP.664 AUC-value printed 0.68
CH01 = experiment: D7324-capture ELISA; settings: PGT145-purified trimers; SOSIP.664 AUC-value printed 0.32
2G12 = experiment: D7324-capture ELISA; settings: PGT145-purified trimers; SOSIP.664 AUC-value printed 2.89
[1] = biological target: HIV-1 LAI Env (parental LAI virus) (HIV-1 (isolate LAI)) (UniProt P03377)

Row | Substance | ratio to parent (gl-PG16) | ratio to parent (PG16) | ratio to parent (CH103) | ratio to parent (PG9) | ratio to parent (F105) | ratio to parent (VRC26.09) | ratio to parent (gl-PG9) | ratio to parent (PGT121) | ratio to parent (PGT151) | ratio to parent (gl-CH01) | ratio to parent (PGT145) | ratio to parent (CH01) | ratio to parent (2G12) | IC50 of neutralization of the parental LAI virus [1] [µg/mL]
1 | BG505 SOSIP.664-D7324 trimer E153C; R178C; G152E | 3.9 | 1.7 | 2.3 | 2 | 4.7 | 1.3 | 1.4 | 1.5 | 1 | 2.1 | 1 | 1.9 | 1 | 
2 | PG9 (antibody) |  |  |  |  |  |  |  |  |  |  |  |  |  | 2
